From patent US20150037349A1 (TECHNOPHAGE INVESTIGA O E DESENVOLVIMENTO EM BIOTECNOLOGIA, published 2015) come the findings set out here.

The chains are these.
B3: rat TNF-alpha (ligand)
chain: LRSSSQNSSDKPVAHVVANHQAEEQLEWLSQRANALLANGMDLKDNQLVVPADGLYLIYSQVLFKGQGCPDYVLLTHTVSRFAISYQEKVSLLSAIKSPCPKDTPEGAELKPWYEPMYLGGVFQLEKGDLLSAEVNLPKYLDITESGQVYFGVIAL
B9: rat albumin (other)
chain: EAHKSEIAHRFKDLGEQHFKGLVLIAFSQYLQKCPYEEHIKLVQEVTDFAKTCVADENAENCDKSIHTLFGDKLCAIPKLRDNYGELADCCAKQEPERNECFLQHKDDNPNLPPFQRPEAEAMCTSFQENPTSFLGHYLHEVARRHPYFYAPELLYYAEKYNEVLTQCCTESDKAACLTPKLDAVKEKALVAAVRQRMKCSSMQRFGERAFKAWAVARMSQRFPNAEFAEITKLATDVTKINKECCHGDLLECADDRAELAKYMCENQATISSKLQACCDKPVLQKSQCLAEIEHDNIPADLPSIAADFVEDKEVCKNYAEAKDVFLGTFLYEYSRRHPDYSVSLLLRLAKKYEATLEKCCAEGDPPACYGTVLAEFQPLVEEPKNLVKTNCELYEKLGEYGFQNAVLVRYTQKAPQVSTPTLVEAARNLGRVGTKCCTLPEAQRLPCVEDYLSAILNRLCVLHEKTPVSEKVTKCCSGSLVERRPCFSALTVDETYVPKEFKAETFTFHSDICTLPDKEKQIKKQTALAELVKHKPKATEDQLKTVMGDFAQFVDKCCKAADKDNCFATEGPNLVARSKEALA
notes: also called rat serum albumin; albumin from rat sera

Assay [1] addresses T1, human TNF-alpha (human, UniProt P01375 77-233).
T1 construct: Immobilised on a CM5 chip or coated on ELISA plates
Briefly: Biacore (SPR). In general terms: SPR reads the build-up and loss of mass on a sensor chip optically.

In assay [2] the target is T2, human albumin (human, UniProt P02768 25-609).
T2 construct: also called human serum albumin; albumin from human sera
Briefly: Biacore (SPR).

Assay [3] concerns the target B9. Kind of assay: Biacore (SPR).
Assay [4] addresses T3, mouse albumin (mouse, UniProt P07724 25-608).
T3 construct: also called mouse serum albumin; albumin from mouse sera
Briefly: antigen cross-reactivity, as described in the Examples above.

The target of assay [5] is B3. Described as above.
Assay [6] addresses T4, VL18-3L-VL11 PEP DI #7.
T4 construct: also called Variant #7
Described as above.

Assay [7] concerns the target T5, BSA (bovine, UniProt P02769).
T5 construct: coated as negative-control antigen; Negative control antigen of the ELISAs; also called bovine serum albumin
Briefly: ELISA, BSA as negative-control antigen, anti-HA-HRP, OD 405 nm. (In general: An ELISA detects its analyte on a solid surface through an enzyme-linked reagent.)
Method: (§1) Relative binding activities of VL monomers and constructed dimers were measured for human and rat TNF-alpha, while BSA was used as a negative control. Briefly, a 384-well ELISA plate was coated with 80 ng of human or rat TNF-alpha and incubated overnight at 4° C. Wells were blocked for one hour at 37° C. with 3% BSA in PBS. Antibody fragments were added to the wells and incubated for 1 h at room temperature. After washing the wells with PBS, anti-HA-HRP mAb (Roche) was used for detection.

The target of assay [8] is B3. Briefly: ELISA, rat TNF-alpha coated (80 ng/well), anti-HA-HRP, OD 405 nm, one unstated fragment concentration.
Method: as §1
Assay [9] concerns the target T1, human TNF-alpha. Kind of assay: ELISA, human TNF-alpha coated (80 ng/well), anti-HA-HRP, OD 405 nm, one unstated fragment concentration.
Method: as §1
In assay [10] the target is T4, VL18-3L-VL11 PEP DI #7. Kind of assay: Biacore (SPR).

T5 sequence (P02769 25-607 limits assumed): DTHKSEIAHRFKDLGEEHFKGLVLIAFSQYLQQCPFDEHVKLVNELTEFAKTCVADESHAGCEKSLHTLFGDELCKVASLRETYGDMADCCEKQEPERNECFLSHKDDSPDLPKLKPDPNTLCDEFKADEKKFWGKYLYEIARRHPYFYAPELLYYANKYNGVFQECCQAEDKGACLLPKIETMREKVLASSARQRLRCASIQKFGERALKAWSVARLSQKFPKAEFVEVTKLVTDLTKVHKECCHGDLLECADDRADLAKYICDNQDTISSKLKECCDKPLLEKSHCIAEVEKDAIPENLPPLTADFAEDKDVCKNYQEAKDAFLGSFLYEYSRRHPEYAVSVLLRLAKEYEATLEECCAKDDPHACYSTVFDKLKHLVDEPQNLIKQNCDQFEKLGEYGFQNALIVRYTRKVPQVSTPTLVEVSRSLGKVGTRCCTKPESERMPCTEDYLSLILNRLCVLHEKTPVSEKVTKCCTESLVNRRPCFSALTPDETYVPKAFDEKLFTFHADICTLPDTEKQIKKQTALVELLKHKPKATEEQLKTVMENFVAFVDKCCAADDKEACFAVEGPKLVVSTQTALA
T1 sequence (P01375 77-233 limits assumed): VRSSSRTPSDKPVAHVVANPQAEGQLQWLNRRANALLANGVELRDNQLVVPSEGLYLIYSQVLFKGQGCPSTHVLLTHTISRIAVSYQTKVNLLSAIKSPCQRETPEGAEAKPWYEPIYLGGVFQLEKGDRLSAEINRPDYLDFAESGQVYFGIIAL
T2 sequence (P02768 25-609 limits assumed): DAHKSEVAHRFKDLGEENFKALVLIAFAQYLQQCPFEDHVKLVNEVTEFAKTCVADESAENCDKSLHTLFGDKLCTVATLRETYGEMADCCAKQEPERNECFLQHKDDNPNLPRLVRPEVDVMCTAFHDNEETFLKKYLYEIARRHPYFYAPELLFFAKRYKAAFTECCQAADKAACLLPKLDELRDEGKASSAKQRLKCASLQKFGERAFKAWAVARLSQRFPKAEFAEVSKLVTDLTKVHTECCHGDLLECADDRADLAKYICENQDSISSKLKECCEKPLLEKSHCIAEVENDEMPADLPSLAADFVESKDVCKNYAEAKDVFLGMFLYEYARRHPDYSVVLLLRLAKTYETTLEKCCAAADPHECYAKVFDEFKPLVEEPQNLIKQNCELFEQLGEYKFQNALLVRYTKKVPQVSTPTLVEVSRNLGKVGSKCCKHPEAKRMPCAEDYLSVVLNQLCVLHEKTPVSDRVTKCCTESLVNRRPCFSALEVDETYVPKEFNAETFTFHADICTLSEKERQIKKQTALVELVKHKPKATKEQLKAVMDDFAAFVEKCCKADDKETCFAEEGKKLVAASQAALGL

B1: VL18-3L-VL11 DI3-PEP DI #8 (other)
chain: ELVLTQQPASVEAAPGGTVTIKCQASQSISSYLAWYQQKPGHPPKLLIYKVSTRASGVSSRFSGSGSGTEFTLTISDLKSADAATYYCQSTYLGGTYVGGAFGGGTELEIKSGGGGSGGGGSGGGGSSGELVMTQQPASVEAAPGGTVTIKCQASQSISSYLAWYQQKPGQPPKLLIYRVSTRASGVSSRFSGSGSGTEFTLTISDLKSADAATYYCQSTYVNRGSVAAFGGGTKVVVKSGGGGSGGGGSGGGGSSGDITGAALLEAKDAAINELKQYGISDYYVHLINKADTVEGVNALKDEILSALPYPYDVPDYA
notes: De-immunized dimer DI #3 fused to de-immunized PEP; also called Variant 8
As for B1, the Kd (as a rule, the concentration at which binding is half-saturated) was found to be 0.0006 µM in assay [1], 0.0885 µM in [2] and 0.0224 µM in assay [3].

B2: VL18-3L-VL11 DI5-PEP DI #9 (other)
chain: ELVLTQQPASVEAAPGGTVTIKCQASQSISSYLAWYQQKPGHPPKLLIYKASTLASGVSSRFSGSGSGTEFTLTISDLKSADAATYYCQSTYLGGTYVGGAFGGGTELEIKSGGGGSGGGGSGGGGSSGELVMTQQPASVEAAPGGTVTIKCQASQSISSYLAWYQQKPGQPPKLLIYRASTLASGVSSRFSGSGSGTEFTLTISDLKSADAATYYCQSTYVNRGSVAAFGGGTKVVVKSGGGGSGGGGSGGGGSSGDITGAALLEAKDAAINELKQYGISDYYVHLINKADTVEGVNALKDEILSALPYPYDVPDYA
notes: De-immunized dimer DI #5 fused to de-immunized PEP; also called Variant 9
Consider B2, for which the Kd in assay [1] amounted to 0.0004 µM; in assay [2], 0.092 µM; in assay [3], 0.032 µM. Moreover, the binding result in [4] and in assay [5] was “binds” each time.
With B3, in assay [6], the binding result was “binds”.

B4: VL11-VL18 3L (other)
single chain VL-VL dimer: ELVMTQTPASVEAAVGGTVTIKCQASQSISRYLAWYQQKPGQPPKLLIYRASTLASGVSSRFKGSGSGTEFTLTISDLECADAATYYCQSTYVNRGSVAAFGGGTEVVVKSGGGGSGGGGSGGGGSSGELVLTQTPASVEAAVGGTVTIKCQASQSISSYLAWYQQKPGHPPKLLIYKASTLASGVSSRFKGSGSGTEFTLTISDLECADAATYYCQSTYLGGTYVGGAFGGGTELEIL
notes: Hexahistidine tail and HA tag; also called VL11-3L-VL18; VL11-18 #3L
In the case of B4, the results for the binding result in [7], in assay [8] and in assay [9] were “no binding”, “binds” and “binds”, respectively.

B5: VL18-VL18 3L (other)
single chain VL-VL dimer: ELVLTQTPASVEAAVGGTVTIKCQASQSISSYLAWYQQKPGHPPKLLIYKASTLASGVSSRFKGSGSGTEFTLTISDLECADAATYYCQSTYLGGTYVGGAFGGGTELEILSGGGGSGGGGSGGGGSSGELVLTQTPASVEAAVGGTVTIKCQASQSISSYLAWYQQKPGHPPKLLIYKASTLASGVSSRFKGSGSGTEFTLTISDLECADAATYYCQSTYLGGTYVGGAFGGGTELEIL
notes: Hexahistidine tail and HA tag; also called VL18-3L-VL18; VL18-18 #3L
In the case of B5, the figures for the binding result in assay [7], in assay [8] and in [9] were “no binding”, “binds” and “binds”, respectively.

B6: VL18-3L-VL11 DI #3 (other)
chain: ELVLTQQPASVEAAPGGTVTIKCQASQSISSYLAWYQQKPGHPPKLLIYKVSTRASGVSSRFSGSGSGTEFTLTISDLKSADAATYYCQSTYLGGTYVGGAFGGGTELEIKSGGGGSGGGGSGGGGSSGELVMTQQPASVEAAPGGTVTIKCQASQSISSYLAWYQQKPGQPPKLLIYRVSTRASGVSSRFSGSGSGTEFTLTISDLKSADAATYYCQSTYVNRGSVAAFGGGTKVVVKYPYDVPDYA
notes: also called Variant 3
B6 returned a Kd in assay [1] of 0.0007 µM. Besides, the binding result in assay [5] is “binds”.

B7: VL18-3L-VL11 DI #1 (other)
chain: ELVLTQQPASVEAAPGGTVTIKCQASQSISSYLAWYQQKPGHPPKLLIYKVSTRASGVSSRFSGSGSGTEFTLTISDLKSADAATYYCQSAYLGGTYVGGAFGGGTELEIKSGGGGSGGGGSGGGGSSGELVMTQQPASVEAAPGGTVTIKCQASQSISSYLAWYQQKPGQPPKLLIYRVSTRASGVSSRFSGSGSGTEFTLTISDLKSADAATYYCQSAYVNRGSVASFGGGTKVVVKYPYDVPDYA
notes: Cloned in pET28a; also called Variant 1
Turning to B7, the binding result in assay [5] is reported as “binds”.

B8: VL18-3L-VL11 DI #5 (other)
chain: ELVLTQQPASVEAAPGGTVTIKCQASQSISSYLAWYQQKPGHPPKLLIYKASTLASGVSSRFSGSGSGTEFTLTISDLKSADAATYYCQSTYLGGTYVGGAFGGGTELEIKSGGGGSGGGGSGGGGSSGELVMTQQPASVEAAPGGTVTIKCQASQSISSYLAWYQQKPGQPPKLLIYRASTLASGVSSRFSGSGSGTEFTLTISDLKSADAATYYCQSTYVNRGSVAAFGGGTKVVVKYPYDVPDYA
notes: also called Variant 5
For the molecule B8, in assay [1], the Kd amounted to 0.0008 µM. Moreover, the binding result in assay [5] is given as “binds”.
For B9, in assay [10], binding was put at a Kd of 0.0281 µM.

B10: VL11-VL11 3L (other)
single chain VL-VL dimer: ELVMTQTPASVEAAVGGTVTIKCQASQSISRYLAWYQQKPGQPPKLLIYRASTLASGVSSRFKGSGSGTEFTLTISDLECADAATYYCQSTYVNRGSVAAFGGGTEVVVKSGGGGSGGGGSGGGGSSGELVMTQTPASVEAAVGGTVTIKCQASQSISRYLAWYQQKPGQPPKLLIYRASTLASGVSSRFKGSGSGTEFTLTISDLECADAATYYCQSTYVNRGSVAAFGGGTEVVVK
notes: Hexahistidine tail and HA tag; also called VL11-3L-VL11; VL11-11 #3L
For B10, the binding result in assay [7] is “no binding”; in [8], “binds”; in assay [9], “binds”.
